Laboratory results as given in PMC11464796.

Molecular target: Msm RNAP core, recombinant (α, ω, β–β′ fusion with C-terminal His8) (Mycobacterium smegmatis) (UniProt A0QSL8)

B1: Msm HelD, wild type, recombinant tag-less (enzyme)
chain: MSGRDYEDELQSERDYVAGLYARLDAERAQSQRRYAAALREHGGTAVERDAEVRALAKDIARLNVADNGLCFGRLDTLDDARLYIGRLGIFDRDNDFEPLLLDWRAPMARPFYVATAANPENMRRRRQFHTLGRKVVDFTDEILGRPTGAEHDATNDAALLAAVNAPRGEGMRDIVATIQAEQDQVIRLDHTGVLVIEGGPGTGKTVVALHRVAYLLYTYRKQMERHGVLVVGPTPAFLDHIGRVLPSLGESDAVFMTPGDFVPGLHVTAEDTPEAAEVKGSLKILDVLKAAVADRQELPSEPIPIDLSDVTMRIDAETAKWARDEARKTGLPHNEARAEFVDVVTYVVTERAVARIGRGWLTRDDKHAWEKMRADVVGELEDHEQFNAALDALWPILTPEDVLAQLYTSHERLRAAGAPECLWRADGEAWTVSDVPLLDELVDLLGRNKAADEAAERERREEEAYAAGVLDLMVDREDLMDDEDHLLAQDLIDAEELADRFKEQDNRELSERAAADREWTYGHVVVDEAQELSEMDWRLLMRRCPRRSFTIVGDLAQRRSPAGARSWGAMLDSYVPGRWVYKSLSVNYRTPAEIMAVAAAVLAEFAPDATPPDSVRACGVAPWARQVTDDDIASAIAEFVSEEAGREGTSVVIGPPDVPGTVPPSETKGLEFDAVLVVEPERILADGPRGAAELYVALTRATQRLGVLYRDALPQALAGLAEGDAAATVEQRTSA
- ATPase activity of the HelD–core and HelD–holoenzyme complexes against free HelD: 2.5 fold
